Experimental findings from patent US20050048614A1, “Biosynthetic oncolytic molecules and uses therefor” (Children's Medical Center Corporation, priority 2000, published 2005) are described below.

Data set [1] deals with metastatic tumor cell line. Nature of the data set: apoptosis assay, flow cytometric analysis of propidium iodide uptake. The format is cell-based. The following applies: apoptosis assays. The text has this:
A first generation osteopontin-derived biosynthetic molecule, oncolysin N, was engineered based on the isolation of a domain of osteopontin sufficient to impart pro-apoptotic activity when isolated away from the naturally-occurring osteopontin polypeptide. In particular, the oncolysin N molecule was designed to include the following domains: (1) a signal sequence (i.e., signal peptide), derived in this instance from the native osteopontin amino acid sequence (i.e., amino acids 1-16 of the human osteopontin-B amino acid sequence set forth as SEQ ID NO:1); (2) a golgi processing domain derived from the native osteopontin amino acid sequence (i.e., amino acids 17-30 of the human osteopontin-B amino acid sequence set forth as SEQ ID NO:1); (3) a pro-apoptotic domain comprising contiguous amino acid residues of human osteopontin-B sufficient to induce apoptosis (i.e., amino acids 147-170 of the human osteopontin-B amino acid sequence set forth as SEQ ID NO:1) yet lacking additional osteopontin-B sequences which are unnecessary for apoptotic activity, or alternatively decrease pro-apoptotic activity, of the biosynthetic molecule; and (4) two linker domains, a first linker domain operably linking the signal sequence to the golgi processing domain, and a second linker domain operably linking the golgi processing domain to the pro-apoptotic domain. The signal sequence and golgi processing domain optimize synthesis, processing through the golgi and secretion of the biosynthetic oncolysin N molecule. […]
Cells are grown in culture and treated with varying doses of exogenous oncolysin N. Apoptosis is determined by flow cytometric analysis according to the uptake of propidium iodide. […] DNA cleavage in apoptotic cells is assessed by flow cytometric analysis, as cells containing hypodiploid nuclei bind less propidium iodide than intact nuclei.
Cellular apoptosis can also be determined using standard criteria in the art such as nuclear condensation, chromatin fragmentation, and viability as assessed by Trypan blue exclusion. […]
A general note: A flow cytometer gives signals particle by particle.

Another data set concerns MDA-MB-231 cells. Nature of the data set: FragEL apoptotic assay in cells infected with pRetro-oncolysin and induced with Doxycycline. It is filed as cell-based, human. The settings on record: 48 h after infection, induced with 3 ug Doxycycline for 6 hours; versus uninduced cells. Here is the method: 50,000 Breast tumor cells were infected with approximately 500,000 viral particles in DME+10% FBS containing 4 μg/ml polybrene. After 48 h., the MDA-MB-231 cells were induced with 3 ug of Doxycycline for 6 hours in defined media. Apoptosis was assessed using the FragEL™ apoptotic assay. Uninduced cells are viable and labeled blue when viewed at 10× magnification under a light microscope. […] Each experiment was performed in duplicates and repeated 3 times.

The test system of another data set is MDA-MB-231 tumor cells. As to the kind of experiment: tubulin staining by indirect fluorescent immunochemistry. It is filed as cell-based, human. The settings on record: induced with 3 μg/ml Doxycycline, six hours; versus uninduced infected cells. On the procedure: Oncolysin 1-infected MDA-MB-231 tumor cells were induced with 3 μg/ml of Doxycycline. After six hours, the cells were fixed in 10% formaldehyde then stained for tubulin using indirect fluorescent immunochemistry.

For data set [2], the system named is MDA-MB-231 Human Breast Cancer Cell. Nature of the data set: nuclear stain (H and E) of infected cells. The format is cell-based. The settings on record: with or without doxycyclin induction for six hours. From the text: Infected cells were stained with H and E without induction with doxycyclin or after induction for six hours.
The subject of the next data set is SHP-1. As to the kind of experiment: signal transduction pathway in infected cells (FIG. 3), SHP-1. The format is cell-based. The following applies: infected cells compared to control cells. From the text:
(§1) FIG. 3 depicts an alteration in the signal transduction pathway in cells infected with oncolysin 1/Sophin C as compared to control cells.

The test system of another data set is PI-3 kinase. As to the kind of experiment: signal transduction pathway in infected cells (FIG. 3), PI-3 kinase. It is filed as cell-based. The following applies: infected cells compared to control cells.
From the text: as §1

The test system of the next data set is MDA-MB-231 xenografts. As to the kind of experiment: MDA-MB-231 xenograft tumor growth in nude mice (FIG. 4). It is filed as in vivo. The following applies: for tumor volume: compared to controls. On the procedure:
To evaluate the effectiveness of oncolysin 1/Sophin C against primary tumor growth and metastasis, 1×10^7 MDA-MB-231 breast cancer cells were injected subcutaneously into the left flank of nude mice. After six weeks the resulting tumors were aseptically dissected out, minced and 1 mm-tumor pieces were transplanted into the right flank of nude mice using a trocar needle. One weeks later, when tumors measured approximately 10 mm, mice were assigned to different experimental groups. One set of 24 animals bearing MDA-MB-231 xenografts were divided into 3 groups that received the following treatments: A first group of 8 animals were injected with pRetro-oncolysin (1×10^6 viral particles). After one day and weekly thereafter (for 3 weeks) these animals received a weekly injection of the inducing agent Doxycyxlin (1 mg/kg) through the peritoneal cavity. A second group of 8 animals received a weekly injection of Doxycyclin (uninfected tumors) and a third group received a weekly injection of oncolysin protein (10 μg/kg). In another set of experiments, the pRetro-oncolysin was injected into the marrow stroma of tumor bearing mice. After, day one, the animals were treated as above, with weekly injection of Doxycyclin. Tumors were measured once every two days with microcalipers, and tumor volume was calculated as length×width×height×0.5236. Body weight was measured on the day of the injection, 4 days later and weekly thereafter. Four days after the first injection, blood samples were collected from the tail vein using the Unopette™ micro-collection kit. Total leukocyte and platelet counts were determined manually using a hemocytometer. Blood smears stained with the Hema3™ kit were used for assessing absolute numbers of granulocytes and lymphocytes. Treatment-related toxicity was evaluated based on the differences in body weight, liver and kidney marker enzymes, and hematological parameters between treatment groups. 20 weeks after treatment, animals were killed by decapitation under anesthesia. […] Liver, heart, uterus, ovaries, lungs spinal cord and all long bones were evaluated histologically.

The subject of data set [3] is breast, prostate and uterine tumors. Nature of the data set: tumor growth in breast, prostate and uterine tumor models, dose response (FIG. 5). The format is in vivo. Here is the method: The effect of Sophin C on tumor growth was evaluated for three tumor types, breast, prostate and uterine.
In the next data set the test system is microtubules. As to the kind of experiment: effect on microtubules in treated cells. The format is cell-based. From the text:
Based on a detailed understanding of the functional domains of osteopontin and an understanding of the role this multifunctional cytokine plays in the regulation of cellular apoptosis, biosynthetic molecules which mimic distinct functions of osteopontin are provided for use in a variety of therapeutic applications, in particular, in the treatment of cancer and inflammatory conditions such as arthritis. In particular, the biosynthetic molecules are useful in the elimination of abnormal or unwanted cells that express at least an integrin receptor and/or that co-express both an integrin and a CD44 receptor. Many of the biosynthetic molecules/peptides disclosed herein are believed to uncouple integrin signaling form CD 44 signaling, resulting in the stabilization of microtubules by down stream activation of rhoB. […] Cells treated with these molecules organize the arrays of disorganized microtubules into parallel bundles and freeze the normal, microtubular, mitotic bundle. As a result, the treated cells form several more asters at various locations with the cell, serving to further strengthen the cell's structure and preventing cell separation.
Many of the biosynthetic molecules/peptides disclosed herein are believed to uncouple integrin signaling form CD 44 signaling. […] Cells treated with these molecules organize the arrays of disorganized into parallel bundles and freeze the normal, microtubular, mitotic bundle. As a result, the treated cells form several more asters at various locations with the cell, serving to further strengthen the cell's structure and preventing cell separation.

B1: oncolysin 1/Sophin C: second generation molecule: oncolysin N with synthetic heparin binding domain (RSKK and RGRR) at the C terminus; 71mer (protein)
chain: MRIAVICFCLLGITCAGGGPGIPVKQADSGSSEEKGGGPGTPVVPTVDTYDGRGDSVVYGLRSKKAARGRR
For the molecule B1, in data set [1], the “apoptotic activity (induction of apoptosis)” value is reported as “dramatically increase apoptotic activity”. The “apoptosis (FragEL staining)” value in the data set with MDA-MB-231 cells was “undergo apoptosis”. The tubulin staining entry with MDA-MB-231 tumor cells is given as “stabilized tubulin around multi-nuclei”. Moreover, the multinucleation entry in [2] is “Multinucleation was observed only in induced cells”. Moreover, in the data set with SHP-1, the SHP-1 protein expression entry is “decreased SHP-1 protein expression”. Further, the PI-3 kinase expression entry with PI-3 kinase is “increased PI-3 kinase expression”. Besides, the “health of treated mice” value in the data set with MDA-MB-231 xenografts (all treated mice, after approximately 6 months, control animals died or were sacrificed) is listed as “remained healthy”. Further, the tumor volume entry in the data set with MDA-MB-231 xenografts (group 1: pRetro-oncolysin 1×10^6 viral particles plus weekly Doxycyclin 1 mg/kg) is reported as “striking reduction in tumor volume”; with MDA-MB-231 xenografts (group 3: weekly injection of oncolysin protein 10 μg/kg) it was “striking reduction in tumor volume”; in data set [3] (50 μg/kg protein), “reduction in tumor volume”; in data set [3] (500 μg/kg protein), “reduction in tumor volume”. In the data set with microtubules, the capping of microtubules result was “inhibit the capping of microtubules”. Also, the polymerization of microtubules result with microtubules is recorded as “induces their unidirectional polymerization”.
